Measured values as given in patent US9260500B2, “Peptide and use thereof” (Takeda Pharmaceutical Company Limited, priority 2009, dated 2016).
Non-standard residues stand in square brackets, D forms with d. No end group written: not given here. *: point of attachment. Arg(Me) = CNC(=N)NCCC[C@H](N)C(=O)O; dHyp = O=C(O)[C@H]1C[C@H](O)CN1; Cha = N[C@@H](CC1CCCCC1)C(=O)O; Cit = NC(=O)NCCC[C@H](N)C(=O)O; dIva = CC[C@@](C)(N)C(=O)O; Isobutyryl = CC(C)C(=O)*; dNMeA = CN[C@H](C)C(=O)O; Abu = CC[C@H](N)C(=O)O; Nleu = CC(C)CNCC(=O)O; Aib = CC(C)(N)C(=O)O; Bz = O=C(c1ccccc1)*; GABA = NCCCC(=O)O; βAla = NCCC(=O)O

Legend:
human Y2 receptor [1] = biological target: T1, human Y2 receptor (Homo sapiens, UniProt P49146); test: Receptor Binding Assay (RBA) for Human Y2, [125I]-PYY displacement on hY2R/CHO membrane fraction; settings: IC50 of test compound/IC50 of PYY(3-36) (PYY(3-36) taken as 1)
T1 construct: expressed in transfected cells; membrane fraction
T1 sequence (P49146 1-381): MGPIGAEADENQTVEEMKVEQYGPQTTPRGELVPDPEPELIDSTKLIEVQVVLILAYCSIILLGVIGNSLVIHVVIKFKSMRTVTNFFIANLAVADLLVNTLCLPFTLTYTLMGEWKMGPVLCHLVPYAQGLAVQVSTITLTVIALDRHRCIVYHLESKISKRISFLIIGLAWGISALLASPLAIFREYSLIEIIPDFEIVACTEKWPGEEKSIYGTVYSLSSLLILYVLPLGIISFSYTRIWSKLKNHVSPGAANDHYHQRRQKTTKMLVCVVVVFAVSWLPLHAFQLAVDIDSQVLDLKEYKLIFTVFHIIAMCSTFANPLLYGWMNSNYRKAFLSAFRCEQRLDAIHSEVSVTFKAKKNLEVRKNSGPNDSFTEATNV
How it was run: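 hY2R stably expressed in CHO/dhfr− cells; membrane fraction prepared from cells disrupted in 10 mM NaHCO3, 5 mM EDTA buffer with protease inhibitors. Binding read as displacement of [125I]-PYY.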

human Y2 receptor [2] = biological target: T1, human Y2 receptor; test: Human Y2 Receptor G Protein Binding Assay (GBA), [35S]GTPγS; format: biochemical; settings: EC50 of test compound/EC50 of PYY(3-36) (PYY3-36 taken as 1), hY2R/CHO membrane fraction
How it was run: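 Agonism measured as [35S]GTPγS binding, read by GF/C filtration and scintillation counting after 120 min at room temperature, using human Y2 membranes at 1 μg protein/mL in pH 7.4 Tris/MgCl2/NaCl/GDP buffer. Compound serially diluted 100 μM–1 nM; EC50 normalized to PYY(3-36) (ratio = compound/PYY).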

RBA IC50 Ratio (human Y2 receptor [1])	GBA EC50 Ratio (human Y2 receptor [2])	Substance
5.5	1.7	Ac-[D-Pro24, Cit26, Cha27,28,36, Aib31]-PYY(23-36) (Ac-S[dP]R[Cit][Cha][Cha]NL[Aib]TRQR[Cha]-NH2; SMILES CC(=O)N[C@@H](CO)C(=O)N1CCC[C@@H]1C(=O)N[C@@H](CCCNC(=N)N)C(=O)N[C@@H](CCCNC(N)=O)C(=O)N[C@@H](CC1CCCCC1)C(=O)N[C@@H](CC1CCCCC1)C(=O)N[C@@H](CC(N)=O)C(=O)N[C@@H](CC(C)C)C(=O)NC(C)(C)C(=O)N[C@H](C(=O)N[C@@H](CCCNC(=N)N)C(=O)N[C@@H](CCC(N)=O)C(=O)N[C@@H](CCCNC(=N)N)C(=O)N[C@@H](CC1CCCCC1)C(N)=O)[C@@H](C)O) [compound No. 152]
20	8.4	Ac-[N(iBu)Gly24, Cha27,28,36, Aib31]-PYY(23-36) (Ac-S[Nleu]RH[Cha][Cha]NL[Aib]TRQR[Cha]-NH2; SMILES CC(=O)N[C@@H](CO)C(=O)N(CC(=O)N[C@@H](CCCNC(=N)N)C(=O)N[C@@H](Cc1c[nH]cn1)C(=O)N[C@@H](CC1CCCCC1)C(=O)N[C@@H](CC1CCCCC1)C(=O)N[C@@H](CC(N)=O)C(=O)N[C@@H](CC(C)C)C(=O)NC(C)(C)C(=O)N[C@H](C(=O)N[C@@H](CCCNC(=N)N)C(=O)N[C@@H](CCC(N)=O)C(=O)N[C@@H](CCCNC(=N)N)C(=O)N[C@@H](CC1CCCCC1)C(N)=O)[C@@H](C)O)CC(C)C) [compound No. 108]
13	6.0	Benzoyl-[Ser26, Cha27,28,36, Aib31]-PYY(25-36) (Bz-RS[Cha][Cha]NL[Aib]TRQR[Cha]-NH2; SMILES CC(C)C[C@H](NC(=O)[C@H](CC(N)=O)NC(=O)[C@H](CC1CCCCC1)NC(=O)[C@H](CC1CCCCC1)NC(=O)[C@H](CO)NC(=O)[C@H](CCCNC(=N)N)NC(=O)c1ccccc1)C(=O)NC(C)(C)C(=O)N[C@H](C(=O)N[C@@H](CCCNC(=N)N)C(=O)N[C@@H](CCC(N)=O)C(=O)N[C@@H](CCCNC(=N)N)C(=O)N[C@@H](CC1CCCCC1)C(N)=O)[C@@H](C)O) [compound No. 97]
1.8	1.8	Ac-[D-Pro24, Arg(Me)25, Cha27,36, Aib28,31, Lys30]-PYY(23-36) (Ac-S[dP][Arg(Me)]H[Cha][Aib]NK[Aib]TRQR[Cha]-NH2; SMILES CNC(=N)NCCC[C@H](NC(=O)[C@H]1CCCN1C(=O)[C@H](CO)NC(C)=O)C(=O)N[C@@H](Cc1c[nH]cn1)C(=O)N[C@@H](CC1CCCCC1)C(=O)NC(C)(C)C(=O)N[C@@H](CC(N)=O)C(=O)N[C@@H](CCCCN)C(=O)NC(C)(C)C(=O)N[C@H](C(=O)N[C@@H](CCCNC(=N)N)C(=O)N[C@@H](CCC(N)=O)C(=O)N[C@@H](CCCNC(=N)N)C(=O)N[C@@H](CC1CCCCC1)C(N)=O)[C@@H](C)O) [compound No. 281]
14	11	Ac-[D-Pro24, D-Iva25, Cha27,28,36, Aib31]-PYY(23-36) (Ac-S[dP][dIva]H[Cha][Cha]NL[Aib]TRQR[Cha]-NH2; SMILES CC[C@@](C)(NC(=O)[C@H]1CCCN1C(=O)[C@H](CO)NC(C)=O)C(=O)N[C@@H](Cc1c[nH]cn1)C(=O)N[C@@H](CC1CCCCC1)C(=O)N[C@@H](CC1CCCCC1)C(=O)N[C@@H](CC(N)=O)C(=O)N[C@@H](CC(C)C)C(=O)NC(C)(C)C(=O)N[C@H](C(=O)N[C@@H](CCCNC(=N)N)C(=O)N[C@@H](CCC(N)=O)C(=O)N[C@@H](CCCNC(=N)N)C(=O)N[C@@H](CC1CCCCC1)C(N)=O)[C@@H](C)O) [compound No. 182]
1.1	0.9	Ac-[D-Hyp24, Cha27,28,36, Aib31]-PYY(23-36) (Ac-S[dHyp]RH[Cha][Cha]NL[Aib]TRQR[Cha]-NH2; SMILES CC(=O)N[C@@H](CO)C(=O)N1C[C@@H](O)C[C@@H]1C(=O)N[C@@H](CCCNC(=N)N)C(=O)N[C@@H](Cc1c[nH]cn1)C(=O)N[C@@H](CC1CCCCC1)C(=O)N[C@@H](CC1CCCCC1)C(=O)N[C@@H](CC(N)=O)C(=O)N[C@@H](CC(C)C)C(=O)NC(C)(C)C(=O)N[C@H](C(=O)N[C@@H](CCCNC(=N)N)C(=O)N[C@@H](CCC(N)=O)C(=O)N[C@@H](CCCNC(=N)N)C(=O)N[C@@H](CC1CCCCC1)C(N)=O)[C@@H](C)O) [compound No. 114]
5.8	3.0	Ac-[GABA24, Cha27,28,36, Aib31]-PYY(23-36) (Ac-S[GABA]RH[Cha][Cha]NL[Aib]TRQR[Cha]-NH2; SMILES CC(=O)N[C@@H](CO)C(=O)NCCCC(=O)N[C@@H](CCCNC(=N)N)C(=O)N[C@@H](Cc1c[nH]cn1)C(=O)N[C@@H](CC1CCCCC1)C(=O)N[C@@H](CC1CCCCC1)C(=O)N[C@@H](CC(N)=O)C(=O)N[C@@H](CC(C)C)C(=O)NC(C)(C)C(=O)N[C@H](C(=O)N[C@@H](CCCNC(=N)N)C(=O)N[C@@H](CCC(N)=O)C(=O)N[C@@H](CCCNC(=N)N)C(=O)N[C@@H](CC1CCCCC1)C(N)=O)[C@@H](C)O) [compound No. 156]
1.2	1.6	Ac-[Dap22, D-Pro24, Pya(4)26, Cha27,36, Aib28,31, Lys30]-PYY(22-36) [compound No. 273]
49	35	Isobutanoyl-[Abu26, Cha27,36, Ser28, Aib31]-PYY(25-36) (Isobutyryl-R[Abu][Cha]SNL[Aib]TRQR[Cha]-NH2; SMILES CC[C@H](NC(=O)[C@H](CCCNC(=N)N)NC(=O)C(C)C)C(=O)N[C@@H](CC1CCCCC1)C(=O)N[C@@H](CO)C(=O)N[C@@H](CC(N)=O)C(=O)N[C@@H](CC(C)C)C(=O)NC(C)(C)C(=O)N[C@H](C(=O)N[C@@H](CCCNC(=N)N)C(=O)N[C@@H](CCC(N)=O)C(=O)N[C@@H](CCCNC(=N)N)C(=O)N[C@@H](CC1CCCCC1)C(N)=O)[C@@H](C)O) [compound No. 102]
1.7	1.2	[βAla23, D-Pro24, Cha27,28,36, Aib31]-PYY(23-36) ([βAla][dP]RH[Cha][Cha]NL[Aib]TRQR[Cha]-NH2; N-terminus assumed; SMILES CC(C)C[C@H](NC(=O)[C@H](CC(N)=O)NC(=O)[C@H](CC1CCCCC1)NC(=O)[C@H](CC1CCCCC1)NC(=O)[C@H](Cc1c[nH]cn1)NC(=O)[C@H](CCCNC(=N)N)NC(=O)[C@H]1CCCN1C(=O)CCN)C(=O)NC(C)(C)C(=O)N[C@H](C(=O)N[C@@H](CCCNC(=N)N)C(=O)N[C@@H](CCC(N)=O)C(=O)N[C@@H](CCCNC(=N)N)C(=O)N[C@@H](CC1CCCCC1)C(N)=O)[C@@H](C)O) [compound No. 116]
6.2	4.6	Ac-[D-Pro24, Cit25, Cha27,36, Aib28,31, Lys30]-PYY(23-36) (Ac-S[dP][Cit]H[Cha][Aib]NK[Aib]TRQR[Cha]-NH2; SMILES CC(=O)N[C@@H](CO)C(=O)N1CCC[C@@H]1C(=O)N[C@@H](CCCNC(N)=O)C(=O)N[C@@H](Cc1c[nH]cn1)C(=O)N[C@@H](CC1CCCCC1)C(=O)NC(C)(C)C(=O)N[C@@H](CC(N)=O)C(=O)N[C@@H](CCCCN)C(=O)NC(C)(C)C(=O)N[C@H](C(=O)N[C@@H](CCCNC(=N)N)C(=O)N[C@@H](CCC(N)=O)C(=O)N[C@@H](CCCNC(=N)N)C(=O)N[C@@H](CC1CCCCC1)C(N)=O)[C@@H](C)O) [compound No. 226]
71	37	Ac-[D-Pro24, Cha27,28,36, D-Iva29, Aib31]-PYY(23-36) (Ac-S[dP]RH[Cha][Cha][dIva]L[Aib]TRQR[Cha]-NH2; SMILES CC[C@@](C)(NC(=O)[C@H](CC1CCCCC1)NC(=O)[C@H](CC1CCCCC1)NC(=O)[C@H](Cc1c[nH]cn1)NC(=O)[C@H](CCCNC(=N)N)NC(=O)[C@H]1CCCN1C(=O)[C@H](CO)NC(C)=O)C(=O)N[C@@H](CC(C)C)C(=O)NC(C)(C)C(=O)N[C@H](C(=O)N[C@@H](CCCNC(=N)N)C(=O)N[C@@H](CCC(N)=O)C(=O)N[C@@H](CCCNC(=N)N)C(=O)N[C@@H](CC1CCCCC1)C(N)=O)[C@@H](C)O) [compound No. 179]
3.5	6.1	Ac-[D-MeAla22, D-Pro24, Cha27,28,36, Aib31]-PYY(22-36) (Ac-[dNMeA]S[dP]RH[Cha][Cha]NL[Aib]TRQR[Cha]-NH2; SMILES CC(=O)N(C)[C@H](C)C(=O)N[C@@H](CO)C(=O)N1CCC[C@@H]1C(=O)N[C@@H](CCCNC(=N)N)C(=O)N[C@@H](Cc1c[nH]cn1)C(=O)N[C@@H](CC1CCCCC1)C(=O)N[C@@H](CC1CCCCC1)C(=O)N[C@@H](CC(N)=O)C(=O)N[C@@H](CC(C)C)C(=O)NC(C)(C)C(=O)N[C@H](C(=O)N[C@@H](CCCNC(=N)N)C(=O)N[C@@H](CCC(N)=O)C(=O)N[C@@H](CCCNC(=N)N)C(=O)N[C@@H](CC1CCCCC1)C(N)=O)[C@@H](C)O) [compound No. 124]
